# Source: PMC9634978 (Molecular Biology of the Cell, 2022)
# T1: his6-Sec18 (S. cerevisiae, UniProt P18759 1-758)
# T1 sequence (looked up): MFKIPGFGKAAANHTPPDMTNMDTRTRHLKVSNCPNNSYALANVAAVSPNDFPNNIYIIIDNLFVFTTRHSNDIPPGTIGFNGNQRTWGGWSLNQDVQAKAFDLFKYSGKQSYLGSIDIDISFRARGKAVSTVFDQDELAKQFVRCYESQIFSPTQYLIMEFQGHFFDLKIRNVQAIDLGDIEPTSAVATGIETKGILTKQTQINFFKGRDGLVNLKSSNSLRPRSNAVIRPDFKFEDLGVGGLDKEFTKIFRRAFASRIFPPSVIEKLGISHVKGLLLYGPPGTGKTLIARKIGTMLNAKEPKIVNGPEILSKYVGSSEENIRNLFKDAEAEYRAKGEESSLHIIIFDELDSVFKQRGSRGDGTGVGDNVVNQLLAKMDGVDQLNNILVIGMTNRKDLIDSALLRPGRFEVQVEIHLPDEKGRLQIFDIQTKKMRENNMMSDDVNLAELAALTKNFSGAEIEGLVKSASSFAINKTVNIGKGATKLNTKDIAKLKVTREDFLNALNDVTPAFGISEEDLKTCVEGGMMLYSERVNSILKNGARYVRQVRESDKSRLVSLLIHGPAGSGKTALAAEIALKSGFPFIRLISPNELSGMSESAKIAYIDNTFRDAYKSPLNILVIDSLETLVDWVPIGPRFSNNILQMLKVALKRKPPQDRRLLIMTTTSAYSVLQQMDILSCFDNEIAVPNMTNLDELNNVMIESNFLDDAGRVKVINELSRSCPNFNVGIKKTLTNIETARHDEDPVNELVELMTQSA
# Assays:
# his6-Sec18 [1] = biological target: T1, his6-Sec18; assay: liposome co-floatation
# his6-Sec18 [2] = biological target: T1, his6-Sec18; assay: liposome co-floatation; remark: listed apart in the source
Binder,binding result (his6-Sec18 [1]),stoichiometry N (his6-Sec18 [2])
"Sec17-K159EK163E (natural protein, S. cerevisiae, UniProt P32602 1-292, looked up) MSDPVELLKRAEKKGVPSSGFMKLFSGSDSYKFEEAADLCVQAATIYRLRKELNLAGDSFLKAADYQKKAGNEDEAGNTYVEAYKCFKSGGNSVNAVDSLENAIQIFTHRGQFRRGANFKFELGEILENDLHDYAKAIDCYELAGEWYAQDQSVALSNECFIECADLKALDGQYIEASDIYSKLIKSSMGNRLSQWSLKDYFLKKGLCQLAATDAVAAARTLQEGQSEDPNFADSRESNFLKSLIDAVNEGDSEQLSEHCKEFDNFMRLDKWKITILNKIKESIQQQEDDLL",binds,
"his6-Sec17 (natural protein, S. cerevisiae, UniProt P32602 1-292, looked up) MSDPVELLKRAEKKGVPSSGFMKLFSGSDSYKFEEAADLCVQAATIYRLRKELNLAGDSFLKAADYQKKAGNEDEAGNTYVEAYKCFKSGGNSVNAVDSLENAIQIFTHRGQFRRGANFKFELGEILENDLHDYAKAIDCYELAGEWYAQDQSVALSNKCFIKCADLKALDGQYIEASDIYSKLIKSSMGNRLSQWSLKDYFLKKGLCQLAATDAVAAARTLQEGQSEDPNFADSRESNFLKSLIDAVNEGDSEQLSEHCKEFDNFMRLDKWKITILNKIKESIQQQEDDLL",,~3 mol Sec17 per mol Sec18 hexamer
